The text below walks through data of US20080293081A1, “Fluorescence Polarization Assays for Acetyltransferase/Deacetylase Activity” (Sirtris Pharmaceuticals, Inc., priority 2005, published 2008).

The target in series [1] is T1, SIRT1 (Homo sapiens, UniProt Q96EB6).
T1 sequence (Q96EB6 1-747): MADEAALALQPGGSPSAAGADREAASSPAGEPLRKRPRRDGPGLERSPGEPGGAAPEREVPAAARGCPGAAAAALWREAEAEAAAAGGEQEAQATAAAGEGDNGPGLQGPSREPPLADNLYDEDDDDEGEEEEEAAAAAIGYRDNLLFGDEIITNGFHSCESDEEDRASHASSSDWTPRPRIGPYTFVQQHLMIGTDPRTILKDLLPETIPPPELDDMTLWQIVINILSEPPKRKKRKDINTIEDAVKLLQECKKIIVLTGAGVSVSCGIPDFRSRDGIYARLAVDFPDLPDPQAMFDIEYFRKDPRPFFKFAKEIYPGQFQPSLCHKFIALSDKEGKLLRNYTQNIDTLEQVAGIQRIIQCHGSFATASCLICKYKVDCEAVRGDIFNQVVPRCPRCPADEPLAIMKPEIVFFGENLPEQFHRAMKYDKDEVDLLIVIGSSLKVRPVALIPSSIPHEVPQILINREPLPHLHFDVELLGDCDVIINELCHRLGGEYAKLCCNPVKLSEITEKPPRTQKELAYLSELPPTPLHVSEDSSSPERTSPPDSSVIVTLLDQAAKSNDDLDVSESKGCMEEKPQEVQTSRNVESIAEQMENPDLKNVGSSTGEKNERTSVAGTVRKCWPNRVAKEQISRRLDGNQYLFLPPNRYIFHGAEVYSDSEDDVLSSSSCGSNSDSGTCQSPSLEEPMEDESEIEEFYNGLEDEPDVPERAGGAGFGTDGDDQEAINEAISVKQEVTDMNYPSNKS
As to conditions: Sirt1, Biomol Fluor de Lys product literature, cited from earlier work.

For series [2], the target named is T2, SIRT3 (Homo sapiens, UniProt Q9NTG7).
T2 construct: amino acid residues 102-399 of human SIRT3 with an N-terminal His-tag; His-tag (N); made in house; host or cells: E. coli
T2 sequence (Q9NTG7 102-399): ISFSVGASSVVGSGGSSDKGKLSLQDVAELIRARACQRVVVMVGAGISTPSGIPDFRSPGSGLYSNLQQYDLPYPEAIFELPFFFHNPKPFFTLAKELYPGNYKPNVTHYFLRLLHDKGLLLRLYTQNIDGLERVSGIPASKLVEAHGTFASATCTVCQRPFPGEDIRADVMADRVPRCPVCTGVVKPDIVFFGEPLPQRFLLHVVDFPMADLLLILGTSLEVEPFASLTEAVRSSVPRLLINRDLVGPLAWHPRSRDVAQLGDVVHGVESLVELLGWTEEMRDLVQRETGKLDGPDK
Briefly: Fluorescence polarization assay, SIRT3 deacetylation of Histone H4-based peptide substrate. The format is biochemical. The text has this:
A fluorescence polarization assay was used to identify modulators of SIRT3 activity. The same assay may be used to identify modulators of any sirtuin protein. The assay utilizes a peptide substrate based on a fragment of Histone H4, a known sirtuin deacetylation target. […] The peptide is labeled with the fluorophore MR121 (excitation 635 nm/emission 680 nm) at the C-terminus and biotin at the N-terminus.
The peptide substrate is exposed to a sirtuin protein in the presence of NAD^+ to allow deacetylation of the substrate and render it sensitive to cleavage by trypsin. Trypsin is then added and the reaction is carried to completion (i.e., the deacetylated substrate is cleaved) releasing the MR121 fragment. Streptavidin is then added to the reaction where it can bind both the uncleaved substrate (i.e., any remaining acetylated substrate) and the non-fluorescent portion of the cleaved peptide substrate (i.e., the biotin containing fragment). The fluorescence polarization signal observed for the full length peptide substrate bound to streptavidin is higher than the fluorescence polarization signal observed for the released MR121 C-terminal fragment. Therefore, the fluorescence polarization obtained is inversely proportional to the level of deacetylation (e.g., the signal is inversely proportional to the activity of the sirtuin protein). Results are read on a microplate fluorescence polarization reader (Molecular Devices Spectramax MD) with appropriate excitation and emission filters.
The fluorescence polarization assays may be conducted as follows: 0.5 μM peptide substrate and 50 μM βNAD^+ is incubated with 2 nM of SIRT3 for 60 minutes at 37° C. in a reaction buffer (25 mM Tris-acetate pH8, 137 mM Na—Ac, 2.7 mM K—Ac, 1 mM Mg—Ac, 0.1% Pluronic F127, 10 mM CaCl2, 1 mM TCEP, 0.025% BSA). Test compounds are solubilized in DMSO and are added to the reaction at 11 concentrations ranging from 0.7 μM to 100 μM. The SIRT3 protein used in the assays corresponded to amino acid residues 102-399 of human SIRT3 with an N-terminal His-tag. The protein was overexpressed in E. coli and purified on a nickel chelate column using standard techniques. After the 60 minute incubation with SIRT3, nicotinamide is added to the reaction to a final concentration of 3 mM to stop the deacetylation reaction and 0.5 μg/mL of trypsin is added to cleave the deacetylated substrate. The reaction is incubated for 30 minutes at 37° C. in the presence of 1 mM streptavidin. Fluorescent polarization is determined at excitation (650 nm) and emissions (680 nm) wavelengths. The level of activity of the sirtuin protein in the presence of the various concentrations of test compound are then determined and may be compared to the level of activity of the sirtuin protein in the absence of the test compound, and/or the level of activity of the sirtuin proteins in the negative control (e.g., level of inhibition) and positive control (e.g., level of activation) described below.
A control for activation of sirtuin activity is conducted using 0.5 μg/mL of sirtuin protein to reach baseline deacetylation of the substrate (e.g., to determine normalized sirtuin activity).
Background: Fluorescence polarisation rises when a labelled molecule tumbles more slowly, as on binding a larger partner.

Series [3] deals with T3, Sirt2 (Homo sapiens, UniProt Q8IXJ6).
T3 sequence (Q8IXJ6 1-389): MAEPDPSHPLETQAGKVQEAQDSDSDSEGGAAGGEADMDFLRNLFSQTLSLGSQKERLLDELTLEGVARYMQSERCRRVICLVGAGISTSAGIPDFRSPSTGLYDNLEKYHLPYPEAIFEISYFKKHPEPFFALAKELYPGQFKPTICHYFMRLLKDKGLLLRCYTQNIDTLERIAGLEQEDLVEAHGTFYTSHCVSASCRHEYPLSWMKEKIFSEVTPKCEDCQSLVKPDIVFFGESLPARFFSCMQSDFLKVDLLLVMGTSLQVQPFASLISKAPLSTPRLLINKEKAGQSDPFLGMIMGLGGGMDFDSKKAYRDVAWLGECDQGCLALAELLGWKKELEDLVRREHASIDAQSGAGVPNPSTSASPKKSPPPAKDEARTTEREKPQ
As to conditions: Km of NAD with the named peptide substrate; Sirt2, FRET, Marcotte et al.; cited from earlier work.

Series [4] deals with T1, SIRT1. As to conditions: Km of NAD with the named peptide substrate; Sirt1, FRET, Marcotte et al.; cited from earlier work.
The target in series [5] is T3, Sirt2. As to conditions: Sirt2, Biomol Fluor de Lys product literature, cited from earlier work.
Series [6] deals with T4, Sirt3 (Homo sapiens, UniProt Q9NTG7).
T4 sequence (Q9NTG7 1-399): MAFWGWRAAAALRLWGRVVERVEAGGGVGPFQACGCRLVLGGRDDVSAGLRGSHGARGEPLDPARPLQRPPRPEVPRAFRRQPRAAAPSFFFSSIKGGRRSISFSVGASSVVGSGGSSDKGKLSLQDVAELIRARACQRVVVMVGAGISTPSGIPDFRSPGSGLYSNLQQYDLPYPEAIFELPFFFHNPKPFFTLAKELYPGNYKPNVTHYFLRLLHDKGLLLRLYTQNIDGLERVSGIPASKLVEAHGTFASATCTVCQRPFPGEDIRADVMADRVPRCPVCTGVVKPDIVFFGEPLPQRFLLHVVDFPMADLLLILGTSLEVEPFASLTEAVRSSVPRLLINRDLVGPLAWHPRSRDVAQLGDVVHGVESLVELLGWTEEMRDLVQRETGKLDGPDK
As to conditions: Sirt3, Biomol Fluor de Lys product literature, cited from earlier work.

The target in series [7] is T5, Biotin-Nle-PSD-K(Ac)-TIGG-K(MR121)-NH2.
T5 chain: XPSDKTIGGK

The target of series [8] is T6, Ac-EE-K(biotin)-GQSTSSHS-K(Ac)-Nle-STEG-K(5-TMR)-EE-NH2.
T6 chain: GQSTSSHSKXSTEGKEE

The mark [9] stands for this setting: Km of NAD with the named peptide substrate, read-out: NAD Km.
Where [10] appears, read: read-out: ED50 (the source's name).

The term Km denotes the concentration of substrate that gives half-maximal velocity. In general, IC50 refers to the point on the concentration scale where inhibition reaches its midpoint.

Like-named read-outs stand apart in the source and are kept apart here. No end group written: not given here. Bounds are passed on as bounds.

On to “p53 (aa 379-382) *FL: p53 (aa 379-382) peptide substrate with fluorescent label, Biomol Fluor de Lys SIRT1 kit (RHKK; also: fluorescent label; UniProt P04637 379-382, looked up, fragment)”, for which the figures for the Km in the series with SIRT1 [1] (setting [9]) and with SIRT1 [1] (read-out: Peptide Km) were 558 µM and 64 µM, respectively.

`O=C(NNc1c2ccccc2nc2ccccc12)c1cccnc1` [Compound 11]: the EC50 at SIRT3 [2] (setting [10]) lay in the range of 51 to 100 µM.

For the molecule `Oc1ccc(C=Cc2cc(O)cc(O)c2)cc1` [resveratrol, reference compound], the EC50 on SIRT3 [2] (activation of SIRT3, read-out: ED50 for activation of SIRT3) was more than 300 µM. With `O=C(O)c1c(O)c(-c2ccccc2)nc2ccccc12` [Compound 80], at SIRT3 [2] (setting [10]), the EC50 lay in the range of 51 to 100 µM. Take `CC(=O)Nc1ccc(Nc2cc(C)nc3c(C)cccc23)cc1` [Compound 81]: the IC50 against SIRT3 [2] lay in the range of 101 to 150 µM.

Consider `O=C(NCc1ccncc1)c1cc(-c2ccsc2)nc2ccccc12` [Compound 1], for which the EC50 on SIRT3 [2] (setting [10]) fell in the range of 51 to 100 µM. For the molecule “p53 20 mer (aa 372-387) *FL: p53 20 mer (aa 372-387) peptide substrate with fluorescent label, FRET assay of Marcotte et al. (KKGQSTSRHKKLMFKT; also: fluorescent label, position not given here; UniProt P04637 372-387, looked up, fragment)”, the Km with Sirt2 [3] is 42 µM; in the series with SIRT1 [4], 90 µM.

As for “p53 (aa 317-320) *FL: p53 (aa 317-320) peptide substrate with fluorescent label, Biomol Fluor de Lys SIRT2 and SIRT3 kits (QPKK; also: fluorescent label; UniProt P04637 317-320, looked up, fragment)”, the Km is 547 µM with Sirt2 [5] (setting [9]), 186 µM with Sirt2 [5] (read-out: Peptide Km), 2.03 mM in the series with Sirt3 [6] (setting [9]) and 0.032 mM with Sirt3 [6] (read-out: Peptide Km).

B1: Human SIRT2 enzyme (protein)
chain: MAEPDPSHPLETQAGKVQEAQDSDSDSEGGAAGGEADMDFLRNLFSQTLSLGSQKERLLDELTLEGVARYMQSERCRRVICLVGAGISTSAGIPDFRSPSTGLYDNLEKYHLPYPEAIFEISYFKKHPEPFFALAKELYPGQFKPTICHYFMRLLKDKGLLLRCYTQNIDTLERIAGLEQEDLVEAHGTFYTSHCVSASCRHEYPLSWMKEKIFSEVTPKCEDCQSLVKPDIVFFGESLPARFFSCMQSDFLKVDLLLVMGTSLQVQPFASLISKAPLSTPRLLINKEKAGQSDPFLGMIMGLGGGMDFDSKKAYRDVAWLGECDQGCLALAELLGWKKELEDLVRREHASIDAQSGAGVPNPSTSASPKKSPPPAKDEARTTEREKPQ
The molecule B1 registered a Peptide Km (uM), fluorescent polarization deacetylase assay in series [7] of 50 µM.

B2: SIRT1 (protein)
chain: MADEAALALQPGGSPSAAGADREAASSPAGEPLRKRPRRDGPGLERSPGEPGGAAPEREVPAAARGCPGAAAAALWREAEAEAAAAGGEQEAQATAAAGEGDNGPGLQGPSREPPLADNLYDEDDDDEGEEEEEAAAAAIGYRDNLLFGDEIITNGFHSCESDEEDRASHASSSDWTPRPRIGPYTFVQQHLMIGTDPRTILKDLLPETIPPPELDDMTLWQIVINILSEPPKRKKRKDINTIEDAVKLLQECKKIIVLTGAGVSVSCGIPDFRSRDGIYARLAVDFPDLPDPQAMFDIEYFRKDPRPFFKFAKEIYPGQFQPSLCHKFIALSDKEGKLLRNYTQNIDTLEQVAGIQRIIQCHGSFATASCLICKYKVDCEAVRGDIFNQVVPRCPRCPADEPLAIMKPEIVFFGENLPEQFHRAMKYDKDEVDLLIVIGSSLKVRPVALIPSSIPHEVPQILINREPLPHLHFDVELLGDCDVIINELCHRLGGEYAKLCCNPVKLSEITEKPPRTQKELAYLSELPPTPLHVSEDSSSPERTSPPDSSVIVTLLDQAAKSNDDLDVSESKGCMEEKPQEVQTSRNVESIAEQMENPDLKNVGSSTGEKNERTSVAGTVRKCWPNRVAKEQISRRLDGNQYLFLPPNRYIFHGAEVYSDSEDDVLSSSSCGSNSDSGTCQSPSLEEPMEDESEIEEFYNGLEDEPDVPERAGGAGFGTDGDDQEAINEAISVKQEVTDMNYPSNKS
Consider B2, for which the Peptide Km (uM), fluorescent polarization deacetylase assay in series [8] came out at 7.8 µM.
